Test results as given in patent US20170029530A1 (AbbVie / Abbott, published 2017).
Where “and” joins values, the source holds several entries; their conditions need not be identical. Equal values may be shown once.

T1: hDPEP3-ECD-His (human, UniProt Q9H4B8 36-463)
T1 construct: also called hDPEP3-His; monomeric hDPEP3-His antigen; not shown: histidine tag
T1 sequence: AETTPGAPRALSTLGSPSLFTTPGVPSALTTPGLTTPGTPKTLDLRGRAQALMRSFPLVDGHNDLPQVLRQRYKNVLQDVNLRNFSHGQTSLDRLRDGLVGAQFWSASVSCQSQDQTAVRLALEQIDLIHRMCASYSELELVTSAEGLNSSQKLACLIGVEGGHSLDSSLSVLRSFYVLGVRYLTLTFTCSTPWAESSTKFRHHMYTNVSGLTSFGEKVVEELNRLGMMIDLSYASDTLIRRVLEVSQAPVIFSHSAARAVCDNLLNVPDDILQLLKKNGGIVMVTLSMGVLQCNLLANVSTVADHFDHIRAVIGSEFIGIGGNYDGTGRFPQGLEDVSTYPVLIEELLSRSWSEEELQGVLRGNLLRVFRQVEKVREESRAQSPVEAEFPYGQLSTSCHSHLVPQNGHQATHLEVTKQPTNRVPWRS

T2: rat DPEP3 ECD with histidine tag (rat, UniProt Q5U2X4 36-459, limits assumed)
T2 construct: also called rDPEP3-His; ratDPEP3-His; not shown: histidine tag
T2 sequence: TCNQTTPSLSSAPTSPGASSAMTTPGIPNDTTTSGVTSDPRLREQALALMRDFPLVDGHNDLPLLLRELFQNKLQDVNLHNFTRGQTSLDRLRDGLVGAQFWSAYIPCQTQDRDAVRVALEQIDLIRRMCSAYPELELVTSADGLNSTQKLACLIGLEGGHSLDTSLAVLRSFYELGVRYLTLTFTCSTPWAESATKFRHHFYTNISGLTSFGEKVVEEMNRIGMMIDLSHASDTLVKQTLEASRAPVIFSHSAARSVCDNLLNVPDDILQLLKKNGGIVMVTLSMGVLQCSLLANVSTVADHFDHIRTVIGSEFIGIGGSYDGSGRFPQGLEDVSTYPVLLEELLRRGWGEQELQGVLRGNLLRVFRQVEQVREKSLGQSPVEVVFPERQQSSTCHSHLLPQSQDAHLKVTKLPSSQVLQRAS

T3: mDPEP3 (limits assumed)
T3 construct: also called mouse DPEP3-His; mouse DPEP3 ECD with histidine tag
T3 single chain: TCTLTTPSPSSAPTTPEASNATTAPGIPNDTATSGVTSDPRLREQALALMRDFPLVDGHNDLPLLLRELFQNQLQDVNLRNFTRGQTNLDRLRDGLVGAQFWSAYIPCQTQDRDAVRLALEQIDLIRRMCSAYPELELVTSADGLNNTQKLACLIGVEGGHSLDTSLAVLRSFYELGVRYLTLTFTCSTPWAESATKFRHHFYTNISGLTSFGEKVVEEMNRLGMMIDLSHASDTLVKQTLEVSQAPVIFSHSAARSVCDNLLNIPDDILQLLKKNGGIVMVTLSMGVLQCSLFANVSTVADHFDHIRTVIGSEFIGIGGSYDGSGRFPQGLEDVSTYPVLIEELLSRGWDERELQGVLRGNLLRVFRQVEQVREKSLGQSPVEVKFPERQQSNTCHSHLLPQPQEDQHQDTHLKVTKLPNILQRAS

T4: cDPEP3 (Macaca fascicularis, UniProt Q4R7M2)
T4 construct: extracellular domain; also called cynomolgus DPEP3-His; cynomolgus DPEP3 ECD with histidine tag
T4 sequence (single chain, looked up): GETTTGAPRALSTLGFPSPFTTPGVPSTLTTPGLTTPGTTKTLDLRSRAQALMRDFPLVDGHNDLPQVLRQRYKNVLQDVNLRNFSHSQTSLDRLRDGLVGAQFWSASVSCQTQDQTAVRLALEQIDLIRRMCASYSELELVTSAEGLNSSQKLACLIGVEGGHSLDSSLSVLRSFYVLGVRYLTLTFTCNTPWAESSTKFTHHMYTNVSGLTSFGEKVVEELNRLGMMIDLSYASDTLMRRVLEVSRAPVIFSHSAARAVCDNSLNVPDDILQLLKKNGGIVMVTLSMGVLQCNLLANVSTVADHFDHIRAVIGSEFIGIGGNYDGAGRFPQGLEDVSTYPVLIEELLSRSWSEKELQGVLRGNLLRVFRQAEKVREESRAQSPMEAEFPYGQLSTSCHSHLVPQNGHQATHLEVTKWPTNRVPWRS


Tests used:
hDPEP3-ECD-His = molecular target: T1, hDPEP3-ECD-His; assay: BLI ForteBio RED, 200 nM hDPEP3-His, estimated grade
Experimental: The affinity of the antibodies for hDPEP3-His was qualitatively determined from kinetics curves generated with a ForteBio RED as follows. Anti-DPEP3 antibodies were immobilized onto anti-mouse Fc capture biosensors with a contact time of 3 mins. and a flow rate of 1000 rpm. The captured antibody loading from baseline was constant at 0.3-1 units. Following antibody capture and 30 second baseline, the biosensors were dipped into a 200 nM solution of hDPEP3-His for a 4 min. association phase followed by a 3 min. dissociation phase at a shaking rate of 1000 rpm. The biosensors were regenerated by dipping into 10 mM glycine, pH 1.7 following each cycle. The data was processed by subtracting a control mouse IgG surface response from the specific antibody response and data was truncated to the association and dissociation phase. The association and dissociation curves were used to qualitatively estimate the affinities of selected antibodies. […] A designation of “ND” means that the estimated KD was not determined.

[1] = molecular target: T2, rat DPEP3 ECD with histidine tag; assay: ELISA, coated antigen
Experimental: (§1) The anti-DPEP3 antibodies were screened by ELISA for cross-reactivity with mouse, rat and cynomolgus DPEP3 and for cross reactivity to hDPEP2, the closest DPEP3 family member. ELISA was conducted as follows. Plates were coated with purified mouse, rat or cynomolgus DPEP3-His or hDPEP2-His at 0.3 μg/mL in 0.2 M carbonate-bicarbonate buffer, pH 9.4 overnight at 4° C. The protein solution was removed and the wells were blocked with 1% (w/v) BSA in PBS (PBSA), 100 μL/well for 1 hour at 37° C. Anti-DPEP3 antibody or a mouse isotype control antibody was then added at 1 μg/mL in 50 μL PBSA for 1 hour at room temperature. After washing with water, 50 μL/well HRP-labeled goat anti-mouse IgG antibody diluted 1:10,000 in PBSA was added for 30 min at room temperature. The plates were washed and developed by the addition of 40 μL/well of the TMB substrate solution (Thermo Scientific) at room temperature. An equal volume of 0.2 M H₂SO₄ was added to stop substrate development. The samples were then analyzed by spectrophotometer at OD 450. […] The cross reactivity results for exemplary DPEP3-specific antibodies can be seen in FIG. 4.

[2] = molecular target: T5, hDPEP2 ECD with histidine tag (human, UniProt Q9H4A9 33-463); assay: ELISA, coated antigen
T5 construct: also called hDPEP2-His; not shown: histidine tag
Experimental: as §1

mDPEP3 = molecular target: T3, mDPEP3; assay: ELISA, coated antigen
Experimental: as §1

cDPEP3 = molecular target: T4, cDPEP3; assay: ELISA, coated antigen
Experimental: as §1

T5 sequence (Q9H4A9 33-463): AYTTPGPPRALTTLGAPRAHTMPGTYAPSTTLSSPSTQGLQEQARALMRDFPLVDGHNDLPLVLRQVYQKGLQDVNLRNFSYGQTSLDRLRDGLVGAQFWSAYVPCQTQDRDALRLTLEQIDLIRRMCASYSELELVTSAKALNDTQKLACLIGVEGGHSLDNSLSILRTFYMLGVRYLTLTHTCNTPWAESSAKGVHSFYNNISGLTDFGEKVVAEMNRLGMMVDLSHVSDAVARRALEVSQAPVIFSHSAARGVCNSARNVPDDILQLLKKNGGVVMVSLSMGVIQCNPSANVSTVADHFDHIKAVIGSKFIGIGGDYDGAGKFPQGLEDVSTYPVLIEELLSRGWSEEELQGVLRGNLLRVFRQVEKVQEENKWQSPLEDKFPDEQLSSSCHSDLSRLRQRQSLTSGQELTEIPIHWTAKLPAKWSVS

Binder	Kd (hDPEP3-ECD-His)	binding result [1]	binding result [2]	binding result (mDPEP3)	binding result (cDPEP3)
SC34.26 (antibody, mouse IgG2b, V domains shown) VH: QVQLQQPGAELVKPGASVTLSCKASGYTFTSYYIYWVKQRPGEGLEWIGEINPSNGGPNFNERFKNKATLTVDKSSSTAYMQLSSLTSEDSAVYYCTRGLLYYDYDRGFAYWGQGTLVTVSA VL: not shown	> 10 nM	no binding (tested: 1 ug/mL)	no binding (tested: 1 ug/mL)	no binding (tested: 1 ug/mL)	no binding (tested: 1 ug/mL)
SC34.38 (antibody, mouse IgG2b, V domains shown) VH: QVQLQQPGAELVKPGASVTLSCKASGYTFTSYYMYWVKQRPGEGLEWIGEINPSNGGANFNERFKNKATLTVDKSSSTAYMQLSSLTSEDSAVFYCTRGLLYYDYDRGFAYWGQGTLVTVSA VL: not shown	< 5 nM	no binding (tested: 1 ug/mL)	no binding (tested: 1 ug/mL)	no binding (tested: 1 ug/mL)	no binding (tested: 1 ug/mL)
SC34.39 (antibody, mouse IgG2a, V domains shown) VH: QVQLQQSGAELMKPGASVKISCKATGYTFSNYWIEWVKQRPGHGLEWIGEILPGSDSTYFNEKFKGKATFTADTSSNTAYMQLSSLTSEDSAVYYCTIRSAAYYSNPEWFAYWGQGTLVTVSA VL: QIVLTQSPAIMSASQGERVTMTCTASSSVSSNYLHWYQQKPGSSPKLWIYSTSHLASGVPVRFSGSGSGTSYSLTISSMEAEDAATYYCHQYHRSPYTFGGGTKLEIK	< 5 nM	no binding (tested: 1 ug/mL)	no binding (tested: 1 ug/mL)	no binding (tested: 1 ug/mL)	no binding (tested: 1 ug/mL)
SC34.90 (antibody, mouse IgG2a, V domains shown) VH: QVQLQQSGAELMKPGASVKISCKATGYTFSYYWIEWVKQRPGHGLEWIGEILPGSDTTYYNEKFKGKATFTADTSSNTAYMQLSSLTSEDSAVYYCTIRRAAYYSNPEWFAYWGQGTLVTVSA VL: QIVLTQSPAIMSASQGERVTMTCTASSSVSSSYLHWYQQKPGSSPKLWIYSTSNLASGVPVRFSGSGSGTSYSLTISSMEAEDAATYYCHQYHRSPYTFGGGTKLEIK	≥ 5 nM and ≤ 10 nM	no binding (tested: 1 ug/mL)	no binding (tested: 1 ug/mL)	no binding (tested: 1 ug/mL)	no binding (tested: 1 ug/mL)

The next lines start with the values.

Kd (hDPEP3-ECD-His)	binding result [1]	binding result [2]	binding result (mDPEP3)	binding result (cDPEP3)	Binder
> 10 nM	no binding (tested: 1 ug/mL)	no binding (tested: 1 ug/mL)	no binding (tested: 1 ug/mL)	no binding (tested: 1 ug/mL)	SC34.78 (antibody, mouse IgG1, V domains shown) VH: DVQLQESGRGLVKPSQSLSLTCTVTGYSLTSDFAWNWIRQFPGNKLEWMGYIRYSGTTSYNPSLKSRISITRDTSKNQFFLQLNSVTTEDTATYYCGYGNYGYAMDYWGQGTSVTVSS VL: DIMMTQSPATLSVTPGDRVSLSCRASQSIGAYLHWYQQKSHESPRLLIKYVSQSISGIPSRFSGSGSGSDFTLSINSVEPEDVGVYYCQNGHSFPLTFGAGTKLELK
< 5 nM	no binding (tested: 1 ug/mL)	no binding (tested: 1 ug/mL)	no binding (tested: 1 ug/mL)	no binding (tested: 1 ug/mL)	SC34.71 (antibody, mouse IgG2a, V domains shown) VH: QVSLKESGPGILQPSQTLSLTCSFFGFSLSTSSMGVGWIRQPSGKGLEWLANIWWDNNKYYNAALKSRLTISKDTSKNQVFLNIASVDTTDTATYYCARIESYYSNRAWFPYWGRGTLVTVSA VL: DIVMTQSQKFMSTSVGDRVSITCKASQNVRTAVAWYQQKPGQSPKTLIYLASNRHTGVPDRFTGSGSGTDFTLTISYVQSEDLADYFCLQHLNYPWTFGGGTKLEIK
< 5 nM	no binding (tested: 1 ug/mL)	no binding (tested: 1 ug/mL)	no binding (tested: 1 ug/mL)	no binding (tested: 1 ug/mL)	SC34.18 (antibody, mouse IgG2b, V domains shown) VH: QVSLKESGPGILQPSQTLSLTCSFSGFSLSTSGMGVGWIRQPSGKGLEWLANIWWDDSIYYNTALKSRLTISKDTSKNQVFLKIASVDTADTATYSCARIESYYGNRAWFAYWGQGTLVTVSA VL: DIVMTQSQKFMSTSVGDRVSITCKASQNVRTAVGWYQQKPGQSPKTLIYLASNRHTGVSDRFTGSGSGTDFTLTISNVQSEDLADYFCLQHWNYPWTFGGGTKLEIK
< 5 nM	no binding (tested: 1 ug/mL)	no binding (tested: 1 ug/mL)	no binding (tested: 1 ug/mL)	no binding (tested: 1 ug/mL)	SC34.6 (antibody, mouse IgG1, V domains shown, also called SC34.06) VH: EVQLQQSGPELVKPGTSMKISCKASGYSFTGYTMNWVKQSHGKNLEWIGLIYPYNDDTRYNRKFKGKATLTVDKSSNTAYMELLSLTSVDSAVCYCARGSYGSPFFDVWGAGTTVTVSS VL: not shown
< 5 nM	no binding (tested: 1 ug/mL)	no binding (tested: 1 ug/mL)	no binding (tested: 1 ug/mL)	no binding (tested: 1 ug/mL)	SC34.21 (antibody, mouse IgG1, V domains shown) VH: EVQLQQSGPELVKPGTSMKISCKASGYSFTGYTMNWVKQSHGKNLEWIGLIYPYNDDTRYNRKFKGKATLTVDKSSNTAYMELLSLTSVDSAVCYCARGSYGSPFFDVWGAGTTVTVSS VL: not shown
